Test results: patent US20030073628A1
Positions of bridges follow the written chain, without caps; N, C: chain ends. No end group written: not given here.

B1: [Glu^3]-UG (SP304) (peptide)
chain: NDECELCVNVACTGCL
modifications: disulfide 4-12, 7-15
B2: human uroguanylin, bicyclo [4,12; 7,15] (SP301) (peptide)
chain: NDDCELCVNVACTGCL
modifications: disulfide 4-12, 7-15
B3: [Glu^2, Glu3]-UG (SP302) (peptide)
chain: NEECELCVNVACTGCL
modifications: disulfide 4-12, 7-15
B4: SP316 (peptide)
chain: ECELCVNVACTGCL
modifications: disulfide 2-10, 5-13
B5: [Glu^2]-UG (SP303) (peptide)
chain: NEDCELCVNVACTGCL
modifications: disulfide 4-12, 7-15

Molecular target: guanylate cyclase receptor (on human T84 colon carcinoma cells) (human)
Test: cell-based or functional assay

Binder	cGMP Level (pmol/well), T84 cells, 1 micromolar peptide for 30 minutes
B1	315 pmol/well
B2	205 pmol/well
B3	225 pmol/well
B4	275 pmol/well
B5	195 pmol/well
